Measured values as given in patent US20240218065A1 (SHENGHE CHINA BIOPHARMACEUTICAL, published 2024).
Read-outs that look alike come from different tables or passages of the source.

How the values were obtained:
[1] = biological target: T1, Human-GPC3-His (human, UniProt P51654 25-559, limits assumed); assay: ELISA: Human-GPC3-His coated at 0.5 µg/mL, antibody titrated 3-fold from 10 µg/mL, HRP goat anti-human IgG-Fc, OD450-OD570
T1 construct: Coated on the ELISA plate; also called GPC-3 protein; GPC3 protein; not shown: His tag
Procedure: (§1) Human-GPC3-His was diluted to 0.5 μg/mL with PBS buffer at pH 7.4, added into the 96-well ELISA plate at 100 μL per well, coated overnight at 4° C., and blocked with 1% BSA blocking solution for 1 hour. The plate was washed 3 times with PBST, and the constructed antibody was diluted to 10 μg/mL with 0.5% BSA sample diluent as the starting concentration, and then diluted by 3-fold gradient (11 gradients in total) and incubated at 37° C. for 1 h at 100 μL per well. The plate was washed 3 times with PBST, and then HRP-labelled goat anti-human IgG-Fc was diluted with the sample diluent at 1:20000. 100 μL was added into each well, and incubated at room temperature for 1 hour. A negative control (blank well and IgG1 isotype control) and a positive control were set, and the positive control was a GPC-3 and CD3 bispecial antibody from the literature Hs, A, et al. “Engineering a bispecific antibody with a common light chain: Identification and optimization of an anti-CD3 epsilon and anti-GPC3 bispecific antibody, ERY974.” Methods 154 (2019): 10-20. (The GPC-3 and CD3 bispecial antibody sequence consists of SEQ ID No. 22, SEQ ID No. 23, and SEQ ID No. 24). The plate was washed 4 times with PBST, and 100 μL of TMB substrate was added into each well, and incubated at room temperature without light for 10 minutes. 100 μL of 1 M HCl solution was added into each well to terminate the color development reaction. The absorbance value of each well in the 96-well plate was determined by selecting the wavelength of 450 nm and the reference wavelength of 570 nm on a multifunctional enzyme marker, and the absorbance value (OD)=OD₄₅₀ₙₘ−OD₅₇₀ₙₘ. The logarithm of the concentration of the constructed antibody was taken as the abscissa, and the measured absorbance value of each well was taken as the ordinate, and the Sigmoidaldose-response (Variable Slope) method (GraphPad Prism software, GraphPad Software, San Diego, California) was selected for nonlinear regression to obtain the binding curve of the target antibody to the GPC-3 protein.

[2] = biological target: T1, Human-GPC3-His; assay: as above; remark: listed apart in the source
Procedure: as §1

[3] = biological target: T1, Human-GPC3-His; assay: as above; remark: listed apart in the source
Procedure: as §1

[4] = biological target: T2, Human-NKP30-His (Kactus, cat: NKP-HM430) (human, UniProt O14931 19-138, limits assumed); assay: ELISA: Human-NKP30-His coated, antibody titrated 3-fold from 10 µg/mL, HRP goat anti-human IgG-Fc, OD450-OD570
T2 construct: also called NKP30 protein; NKP30-his protein; not shown: His tag
T2 sequence (looked up): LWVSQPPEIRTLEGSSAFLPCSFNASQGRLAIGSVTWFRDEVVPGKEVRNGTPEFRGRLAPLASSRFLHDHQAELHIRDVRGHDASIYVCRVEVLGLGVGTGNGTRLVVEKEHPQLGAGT
Procedure: Human-NKP30-His (Kactus, cat: NKP-HM430) was diluted to […] with PBS buffer at pH 7.4, added into the 96-well ELISA plate at 100 μL per well, coated overnight at 4° C., and blocked with 1% BSA blocking solution for 1 hour. The plate was washed 3 times with PBST, and the constructed antibodies were diluted to 10 μg/mL with 0.5% BSA sample diluent as the starting concentration, and then diluted by 3-fold gradient (11 gradients in total). A negative control (blank well and IgG1 isotype control) and a positive control were set, and the positive control was a NKP30 humanized antibody (sequence shown in SEQ ID No. 28), and incubated at 37° C. for 1 h at 100 μL per well. The plate was washed 3 times with PBST, and then HRP-labelled goat anti-human IgG-Fc was diluted with the sample diluent at 1:20000. 100 μL was added into each well, and incubated at room temperature for 1 hour. The plate was washed 4 times with PBST, and 100 μL of TMB substrate was added into each well, and incubated at room temperature without light for 10 minutes. 100 μL of 1 M HCl solution was added into each well to terminate the color development reaction. The absorbance value of each well in the 96-well plate was determined by selecting the wavelength of 450 nm and the reference wavelength of 570 nm on a multifunctional enzyme marker, and the absorbance value (OD)=OD₄₅₀ₙₘ−OD₅₇₀ₙₘ. The logarithm of the concentration of the constructed antibody was taken as the abscissa, and the measured absorbance value of each well was taken as the ordinate, and the Sigmoidaldose-response (Variable Slope) method (GraphPad Prism software, GraphPad Software, San Diego, California) was selected for nonlinear regression to obtain the binding curve of the target antibody to NKP30.

T1 sequence (P51654 25-559 limits assumed): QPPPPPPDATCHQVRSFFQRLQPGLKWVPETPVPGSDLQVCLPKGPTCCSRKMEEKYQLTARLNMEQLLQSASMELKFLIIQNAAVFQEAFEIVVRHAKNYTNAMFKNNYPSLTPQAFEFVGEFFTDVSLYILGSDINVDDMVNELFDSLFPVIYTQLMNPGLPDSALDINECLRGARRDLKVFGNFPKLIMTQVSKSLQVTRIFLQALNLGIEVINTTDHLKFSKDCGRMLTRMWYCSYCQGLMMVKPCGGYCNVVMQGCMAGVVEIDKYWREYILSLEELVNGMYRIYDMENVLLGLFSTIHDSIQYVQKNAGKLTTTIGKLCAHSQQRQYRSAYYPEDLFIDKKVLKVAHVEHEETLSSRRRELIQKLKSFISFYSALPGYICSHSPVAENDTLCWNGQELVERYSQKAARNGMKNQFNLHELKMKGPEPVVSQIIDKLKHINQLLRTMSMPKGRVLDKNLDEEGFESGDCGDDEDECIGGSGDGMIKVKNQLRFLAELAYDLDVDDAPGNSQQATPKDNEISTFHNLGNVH

Binder | EC50 (read off the curve) [1] [µg/mL] | EC50 (read off the curve) [2] [µg/mL] | EC50 (read off the curve) [3] [µg/mL] | EC50 (read off the curve) [4] [µg/mL]
GPC-3 and CD3 bispecial antibody (ERY974) (bispecific antibody, human IgG4 S228P, kappa, N297A, also called anti-CD3 epsilon and anti-GPC3 bispecific antibody) chain 1: QVQLVQSGAEVKKPGASVTVSCKASGYTFTDYEMHWIRQPPGEGLEWIGAIDGPTPDTAYSEKFKGRVTLTADKSTSTAYMELSSLTSEDTAVYYCTRFYSYTYWGQGTLVTVSSASTKGPSVFPLAPCSRSTSESTAALGCLVKDYFPEPVTVSWNSGALTSGVHTFPAVLQSSGLYSLSSVVTVPSSSLGTQTYTCNVDHKPSNTKVDKRVESKYGPPCPPCPAPEFRGGPKVFLFPPKPKDTLMISRTPEVTCVVVDVSQEDPEVQFNWYVDGVEVHNAKTKPREEQFASTYRVVSVLTVLHQDWLNGKEYKCKVSNKGLPSSIEKTISKAKGQPREPQVYTLPPSQEEMTKNQVSLTCLVKGFYPSDIAVEWESNGQPENNYKTTPPVLDSDGSFFLYSKLTVDKSRWQEGNVFSCSVMHEALHNHYTQESLSLSP chain 2: QVQLVESGGGVVQPGGSLRLSCAASGFTFSNAWMHWVRQAPGKGLEWVAQIKDKSQNYATYVAESVKGRFTISRADSKNSIYLQMNSLKTEDTAVYYCRYVHYAAGYGVDIWGQGTTVTVSSASTKGPSVFPLAPCSRSTSESTAALGCLVKDYFPEPVTVSWNSGALTSGVHTFPAVLQSSGLYSLSSVVTVPSSSLGTKTYTCNVDHKPSNTKVDKRVESKYGPPCPPCPAPEFRGGPKVFLFPPKPKDTLMISRTPEVTCVVVDVSQEDPEVQFNWYVDGVEVHNAKTKPREEQFASTYRVVSSLTVLHQDWLNGKEYKCKVSNKGLPSSIEKTISKAKGQPREPQVYTLPPSQKEMTKNQVSLTCLVKGFYPSDIAVEWESNGQPENNYKTTPPVLDSSGSFFLYSKLTVDKSRWQEGNVFSCSVMHEALHNHYTQKSLSLSP chain 3: DIVMTQSPLSLPVTPGEPASISCRSSQPLVHSNRNTYLHWYQQKPGQAPRLLIYKVSNRFSGVPDRFSGSGSGTDFTLKISRVEAEDVGVYYCGQGTQVPYTFGQGTKLEIKRTVAAPSVFIFPPSDEQLKSGTASVVCLLNNFYPREAKVQWKVDNALQSGNSQESVTEQDSKDSTYSLSSTLTLSKADYEKHKVYACEVTHQGLSSPVTKSFNRGEC | ~0.03 | ~0.03 | ~0.01 | –
GN15-G (bispecific antibody, human IgG1, kappa, Trifunctional antibody against GPC-3 and NKP30 with IL-15 and IL-15Rα sushi between CH1 and CH2; also called constructed antibody GN15-G; multifunctional antibody) light 1: QVQLVQSGAEVKKPGASVKVSCKASGYTFTDYEMHWVRQAPGQGLEWMGALDPKTGDTAYSQKFKGRVTLTADKSTSTAYMELSSLTSEDTAVYYCTRFYSYTYWGQGTLVTVSSRTVAAPSVFIFPPSDEQLKSGTASVVCLLNNFYPREAKVQWKVDNALQSGNSQESVTEQDSKDSTYSLSSTLTLSKADYEKHKVYACEVTHQGLSSPVTKSFNRGECGGGGSGGGGSGGGGSGGGGSEVQLVESGGGLVQPGGSLRLSCAASGITFSRSVMGWFRQAPGKLRELVAGITSDDNTDYADSVKGRFTISRDNSKNTLYLQMNSLRAEDTAVYYCNILPDSRLGWGQGTLVTVSS heavy 1: not shown heavy 2: QVQLVQSGAEVKKPGASVKVSCKASGYTFTDYEMHWVRQAPGQGLEWMGALDPKTGDTAYSQKFKGRVTLTADKSTSTAYMELSSLTSEDTAVYYCTRFYSYTYWGQGTLVTVSSASTKGPSVFPLAPSSKSTSGGTAALGCLVKDYFPEPVTVSWNSGALTSGVHTFPAVLQSSGLYSLSSVVTVPSSSLGTQTYICNVNHKPSNTKVDKKVEPKSCDKTHTCPPCPGGGGSGGGGSPALLLLLLLRPPATRGITCPPPMSVEHADIWVKSYSLYSRERYICNSGFKRKAGTSSLTECVLNKATNVAHWTTPSLKCIRDPALVHQRPAPPSTVTTAGVTPQPESLSPSGKEGGGGSGGGGSAPELLGGPSVFLFPPKPKDTLMISRTPEVTCVVVDVSHEDPEVKFNWYVDGVEVHNAKTKPREEQYNSTYRVVSVLTVLHQDWLNGKEYKCKVSNKALPAPIEKTISKAKGQPREPQVYTLPPSRDELTKNQVSLTCLVKGFYPSDIAVEWESNGQPENNYKTTPPVLDSDGSFFLASKLTVDKSRWQQGNVFSCSVMHEALHNHYTQKSLSLSPGK light 2: DVVMTQSPLSLPVTPGEPASISCRSSQSLVHSNRNTYLHWYLQKPGQSPQLLIYKVSNRFSGVPDRFSGSGSGTDFTLKISRVEAEDVGVYYCSQNTHVPPTFGQGTKLEIKRTVAAPSVFIFPPSDEQLKSGTASVVCLLNNFYPREAKVQWKVDNALQSGNSQESVTEQDSKDSTYSLSSTLTLSKADYEKHKVYACEVTHQGLSSPVTKSFNRGEC | – | – | ~0.01 | ~0.03
